Measurements as given in patent US10279022B2, “Peptides and combination of peptides for use in immunotherapy against various cancers” (immatics biotechnologies GmbH, priority 2015, dated 2019).

What was measured:
HLA-A*02 = HLA-A*02 (Homo sapiens, UniProt P04439, D140Y/D185E/D98H/E176V/E277Q/G131W/G231S/I119V/I121R/I166T/I218V/L300P/N151K/N90K/P208A/P217A/Q86G/Q94H/R138H/R169H); assay: MHC binding assay by UV-ligand exchange and beta2m ELISA (HLA-A*02); settings: peptide exchange yield, binding to HLA-A*02; UV-ligand exchange, beta2m ELISA
Text: (§1) Candidate peptides for T cell based therapies according to the present invention were further tested for their MHC binding capacity (affinity). The individual peptide-MHC complexes were produced by UV-ligand exchange, where a UV-sensitive peptide is cleaved upon UV-irradiation, and exchanged with the peptide of interest as analyzed. Only peptide candidates that can effectively bind and stabilize the peptide-receptive MHC molecules prevent dissociation of the MHC complexes. To determine the yield of the exchange reaction, an ELISA was performed based on the detection of the light chain (β2m) of stabilized MHC complexes. The assay was performed as generally described in Rodenko et al. (Rodenko et al., 2006).
(§2) 96 well MAXISorp plates (NUNC) were coated over night with 2 ug/ml streptavidin in PBS at room temperature, washed 4× and blocked for 1 h at 37° C. in 2% BSA containing blocking buffer. Refolded HLA-A*02:01/MLA-001 monomers served as standards, covering the range of 15-500 ng/ml. Peptide-MHC monomers of the UV-exchange reaction were diluted 100 fold in blocking buffer. Samples were incubated for 1 h at 37° C., washed four times, incubated with 2 ug/ml HRP conjugated anti-β2m for 1 h at 37° C., washed again and detected with TMB solution that is stopped with […]. Absorption was measured at 450 nm. Candidate peptides that show a high exchange yield (preferably higher than 50%, most preferred higher than 75%) are generally preferred for a generation and production of antibodies or fragments thereof, and/or T cell receptors or fragments thereof, as they show sufficient avidity to the MHC molecules and prevent dissociation of the MHC complexes.

CD8+ T cells = assay: In vitro T-cell priming assay (aAPCs loaded with peptide/MHC and anti-CD28), pMHC multimer readout; assay type: cell-based, human; settings: for Wells positive [%]: in vitro immunogenicity of HLA class I peptides, peptide specific pMHC multimer staining after three stimulation cycles; for in vitro immunogenicity: Wells: positive wells, HLA-A*02 and HLA-A*24 peptides, healthy donors
Text: In order to obtain information regarding the immunogenicity of the TUMAPs of the present invention, the inventors performed investigations using an in vitro T-cell priming assay based on repeated stimulations of CD8+ T cells with artificial antigen presenting cells (aAPCs) loaded with peptide/MHC complexes and anti-CD28 antibody.
In order to perform in vitro stimulations by artificial antigen presenting cells loaded with peptide-MHC complex (pMHC) and anti-CD28 antibody, the inventors first isolated CD8+ T cells from fresh HLA-A*02 leukapheresis products via positive selection using CD8 microbeads (Miltenyi Biotec, Bergisch-Gladbach, Germany) of healthy donors obtained from the University clinics Mannheim, Germany, after informed consent.
PBMCs and isolated CD8+ lymphocytes were incubated in T-cell medium (TCM) until use consisting of RPMI-Glutamax (Invitrogen, Karlsruhe, Germany) supplemented with 10% heat inactivated human AB serum (PAN-Biotech, Aidenbach, Germany), 100 U/ml Penicillin/100 μg/ml Streptomycin (Cambrex, Cologne, Germany), 1 mM sodium pyruvate (CC Pro, Oberdorla, Germany), 20 μg/ml Gentamycin (Cambrex). 2.5 ng/ml IL7 (PromoCell, Heidelberg, Germany) and 10 U/ml IL-2 (Novartis Pharma, Nurnberg, Germany) were also added to the TCM at this step.
Generation of pMHC/anti-CD28 coated beads, T-cell stimulations and readout was performed in a highly defined in vitro system using four different pMHC molecules per stimulation condition and 8 different pMHC molecules per readout condition.
The purified co-stimulatory mouse IgG2a anti human CD28 Ab 9.3 (Jung et al., 1987) was chemically biotinylated using Sulfo-N-hydroxysuccinimidobiotin as recommended by the manufacturer (Perbio, Bonn, Germany). Beads used were 5.6 μm diameter streptavidin coated polystyrene particles (Bangs Laboratories, Illinois, USA).
pMHC used for positive and negative control stimulations were A*0201/MLA-001 (peptide […] (SEQ ID NO. 303) from modified Melan-A/MART-1) and A*0201/DDX5-001 ([…] from DDX5, SEQ ID NO. 304), respectively.
800.000 beads/200 μl were coated in 96-well plates in the presence of 4×12.5 ng different biotin-pMHC, washed and 600 ng biotin anti-CD28 were added subsequently in a volume of 200 μl. Stimulations were initiated in 96-well plates by co-incubating 1×10^6 CD8+ T cells with 2×10^5 washed coated beads in 200 μl TCM supplemented with 5 ng/ml IL-12 (PromoCell) for 3 days at 37° C. Half of the medium was then exchanged by fresh TCM supplemented with 80 U/ml IL-2 and incubating was continued for 4 days at 37° C. This stimulation cycle was performed for a total of three times. For the pMHC multimer readout using 8 different pMHC molecules per condition, a two-dimensional combinatorial coding approach was used as previously described (Andersen et al., 2012) with minor modifications encompassing coupling to 5 different fluorochromes. Finally, multimeric analyses were performed by staining the cells with Live/dead near IR dye (Invitrogen, Karlsruhe, Germany), CD8-FITC antibody clone SK1 (BD, Heidelberg, Germany) and fluorescent pMHC multimers. For analysis, a BD LSRII SORP cytometer equipped with appropriate lasers and filters was used. Peptide specific cells were calculated as percentage of total CD8+ cells. Evaluation of multimeric analysis was done using the FlowJo software (Tree Star, Oregon, USA). In vitro priming of specific multimer+CD8+ lymphocytes was detected by comparing to negative control stimulations.

HLA-A*24 = assay: MHC binding assay by UV-ligand exchange and beta2m ELISA (HLA-A*24); set-up: species or system human; settings: peptide exchange yield, binding to HLA-A*24; UV-ligand exchange, beta2m ELISA
Text: as §1, §2

Substance	Peptide exchange (HLA-A*02)	other results
34 (FLLATEVVTV; listed as Homo sapiens) [compound 34]	++++ (> = 75% = ++++)	–
126 (QMFQYFITV; listed as Homo sapiens) [compound 126]	++++ (> = 75% = ++++)	–
165 (DYTTWTALL; listed as Homo sapiens) [compound 165]	–	Wells positive [%] (CD8+ T cells): + (<20% = +); Peptide exchange (HLA-A*24): ++++ (> = 75% = ++++)
204 (TYELRYFQI; listed as Homo sapiens) [compound 204]	–	Wells positive [%] (CD8+ T cells): + (<20% = +); Peptide exchange (HLA-A*24): ++++ (> = 75% = ++++)
51 (LLFSRLCGA; listed as Homo sapiens) [compound 51]	++++ (> = 75% = ++++)	–
129 (RLQDILWFL; listed as Homo sapiens) [compound 129]	++++ (> = 75% = ++++)	–
248 (YLDRFLAGV; listed as Homo sapiens) [compound 248]	++++ (> = 75% = ++++)	–
84 (ALCPRIHEV; listed as Homo sapiens) [compound 84]	++++ (> = 75% = ++++)	–
229 (AILAHLNTV; listed as Homo sapiens) [compound 229]	++++ (> = 75% = ++++)	–
163 (DYLKGLASF; listed as Homo sapiens) [compound 163]	–	Wells positive [%] (CD8+ T cells): + (<20% = +); Peptide exchange (HLA-A*24): ++++ (> = 75% = ++++)
257 (GLYTDPCGV; listed as Homo sapiens) [compound 257]	++++ (> = 75% = ++++)	–
249 (GLCERLVSL; listed as Homo sapiens) [compound 249]	++++ (> = 75% = ++++)	Wells positive [%] (CD8+ T cells): + (<20% = +)
3 (KLEENGDLYL; listed as Homo sapiens) [compound 3]	++++ (> = 75% = ++++)	–
153 (FISERVEVV; listed as Homo sapiens) [compound 153]	++++ (> = 75% = ++++)	–
245 (SLLDLPLSL; listed as Homo sapiens) [compound 245]	++++ (> = 75% = ++++)	–
112 (SLGKFTFDV; listed as Homo sapiens) [compound 112]	++++ (> = 75% = ++++)	–
167 (NYINRILKL; listed as Homo sapiens) [compound 167]	–	Wells positive [%] (CD8+ T cells): + (<20% = +); Peptide exchange (HLA-A*24): ++++ (> = 75% = ++++)
1 (LLYPEPWSV; listed as Homo sapiens) [compound 1]	++++ (> = 75% = ++++)	–

Substance	Peptide exchange (HLA-A*02)	other results
16 (YTLDIPVLFGV; listed as Homo sapiens) [compound 16]	++++ (> = 75% = ++++)	–
159 (LYNKGFIYL; listed as Homo sapiens) [compound 159]	–	Wells positive [%] (CD8+ T cells): ++++ (> = 70% = ++++); Peptide exchange (HLA-A*24): ++++ (> = 75% = ++++)
92 (GLLFSLRSV; listed as Homo sapiens) [compound 92]	++++ (> = 75% = ++++)	–
14 (ILAKDLFEI; listed as Homo sapiens) [compound 14]	++++ (> = 75% = ++++)	–
293 (FLVDGSWSI; listed as Homo sapiens) [compound 293]	–	in vitro immunogenicity: Wells (CD8+ T cells): + (<20% = +)
4 (KLMPGTYTL; listed as Homo sapiens) [compound 4]	++++ (> = 75% = ++++)	Wells positive [%] (CD8+ T cells): + (<20% = +)
147 (YLMDDTVEI; listed as Homo sapiens) [compound 147]	++++ (> = 75% = ++++)	–
95 (GLLGSLFFL; listed as Homo sapiens) [compound 95]	++++ (> = 75% = ++++)	–
12 (GLLPLLHRA; listed as Homo sapiens) [compound 12]	++++ (> = 75% = ++++)	Wells positive [%] (CD8+ T cells): ++++ (> = 70% = ++++)
158 (HYSQELSLLYL; listed as Homo sapiens) [compound 158]	–	Wells positive [%] (CD8+ T cells): + (<20% = +); Peptide exchange (HLA-A*24): ++++ (> = 75% = ++++)
292 (GMMTAILGV; listed as Homo sapiens) [compound 292]	–	in vitro immunogenicity: Wells (CD8+ T cells): + (<20% = +)
125 (SLADYEHFV; listed as Homo sapiens) [compound 125]	++++ (> = 75% = ++++)	–
133 (ALLPRLHQL; listed as Homo sapiens) [compound 133]	++++ (> = 75% = ++++)	–
296 (TYVDSSHTI; listed as Homo sapiens) [compound 296]	–	in vitro immunogenicity: Wells (CD8+ T cells): + (<20% = +)
300 (AYVLRLETL; listed as Homo sapiens) [compound 300]	–	in vitro immunogenicity: Wells (CD8+ T cells): + (<20% = +)
258 (LLSERFINV; listed as Homo sapiens) [compound 258]	++++ (> = 75% = ++++)	–
291 (KLDETGNSL; listed as Homo sapiens) [compound 291]	–	in vitro immunogenicity: Wells (CD8+ T cells): + (<20% = +)
